Assay [1] has as its target T1, TLNRD1 four-helix domain (TLNRD1-4H, residues 143-273) (human, UniProt Q9H1K6 143-273).
T1 construct: Human TLNRD1 four-helix domain, residues 143-273, sub-cloned into pET151; Density was traced for residues 148-270 in PDB 6XZ3; also called 4H domain
Description: fluorescence polarisation; serial dilution of protein against 100 nM fluorescein- or BODIPY-TMR-coupled peptide; 20°C; one-site total binding equation; triplicate. Conditions: both partners purified. On the technique in general: Fluorescence polarisation rises when a labelled molecule tumbles more slowly, as on binding a larger partner.

Another assay concerns the target T2, talin R7R8 rod domains (UniProt Q9Y490 1359-1659).
T2 construct: Talin R7R8 rod domains; the construct used in the assays is not described in the methods
The description is as above. The settings on record: both partners purified.

T1 sequence (Q9H1K6 143-273): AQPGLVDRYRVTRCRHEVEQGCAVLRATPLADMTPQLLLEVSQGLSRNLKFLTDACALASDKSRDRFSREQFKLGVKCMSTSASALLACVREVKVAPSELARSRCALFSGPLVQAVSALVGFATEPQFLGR
T2 sequence (Q9Y490 1359-1659): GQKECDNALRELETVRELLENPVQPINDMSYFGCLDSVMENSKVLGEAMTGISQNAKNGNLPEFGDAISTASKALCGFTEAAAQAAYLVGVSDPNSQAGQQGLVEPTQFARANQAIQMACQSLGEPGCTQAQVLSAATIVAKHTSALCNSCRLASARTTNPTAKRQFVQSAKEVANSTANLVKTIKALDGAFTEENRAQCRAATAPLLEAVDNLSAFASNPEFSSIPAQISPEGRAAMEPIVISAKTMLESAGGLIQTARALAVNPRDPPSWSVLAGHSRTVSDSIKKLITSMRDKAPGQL

B1: lamellipodin(20-46) peptide (peptide)
peptide: EDQDLDKMFGAWLGELDRLTQSLDSDKC
modifications: coupled with either a fluorescein or BODIPY-TMR dye (which one is not stated for this peptide)
notes: Lamellipodin residues 20-46; added C-terminal cysteine residue; source: synthetic peptide (GLBiochem, Shanghai)
Turning to B1, in assay [1], binding was put at a Kd of 9 µM.

B2: KANK1(30-60) peptide, KN domain LD motif, BODIPY-labeled (peptide)
peptide: PYFVETPYGFQLDLDFVKYVDDIQKGNTIKKC
modifications: BODIPY-labeled
notes: KANK1 KN domain LD motif, residues 30-60; added C-terminal cysteine residue; also called KANK1 KN domain LD motif (residues 30-60); source: synthetic peptide (GLBiochem, Shanghai)
B2: binding in the assay with talin R7R8 rod domains was characterised by a dissociation constant (Kd) of 0.35 µM. That is a sub-micromolar value.
